Some targets named below: HOXA3 (human) (UniProt O43365); HOXD3 (human) (UniProt P31249); LNX2 (human) (UniProt Q8N448); LOC541468 (human) (UniProt Q96LR2); MIZF (human) (UniProt Q9BQA5); PDE9A (human) (UniProt O76083); SF3A3 (human) (UniProt Q12874); C20orf141 (human) (UniProt Q9NUB4); CCDC24 (human) (UniProt Q8N4L8); DGCR6L (human) (UniProt Q9BY27); DHRS10 (human) (UniProt Q9BPX1); FANCG (human) (UniProt O15287); FATE1 (human) (UniProt Q969F0); FLJ22471 (human) (UniProt Q53HC0); HOXB9 (human) (UniProt P17482); KIAA1949 (human) (UniProt Q6NYC8); KIF9 (human) (UniProt Q9HAQ2); KRT8 (human) (UniProt P05787); LENG1 (human) (UniProt Q96BZ8); MRPS6 (human) (UniProt P82932); MYEF2 (human) (UniProt Q9P2K5); NEFL (human) (UniProt P07196); NIF3L1 (human) (UniProt Q9GZT8); NOS3 (human) (UniProt P29474); SPG21 (human) (UniProt Q9NZD8); TTC23 (human) (UniProt Q5W5X9); ZNF614 (human) (UniProt Q8N883).

Holding throughout (assay): cell-based or functional assay

Turning to HIV-1 Tat, the HIV LTR transactiv. (fold change) was 0.29 fold change in the assay with HOXA3 (human); 7.3 fold change in the assay with HOXD3 (human); 0.26 fold change with LNX2 (human); 2.38 fold change with LOC541468 (human); 2.5 fold change with MIZF (human); 0.28 fold change with PDE9A (human). Besides, the HIV LTR transactiv. (fold change) with SF3A3 (human) is 0.49 fold change.

In the case of HTLV-1 Tax p40, the HTLV LTR transactiv. (fold change) with C20orf141 (human) is 2.8 fold change; with CCDC24 (human), 2.88 fold change; with DGCR6L (human) it was 0.24 fold change; in the assay with DHRS10 (human), 0.41 fold change; in the assay with FANCG (human), 3.48 fold change; with FATE1 (human) it was 0.49 fold change. The HTLV LTR transactiv. (fold change) with FLJ22471 (human) stood at 2.25 fold change; in the assay with HOXB9 (human) it was 3.69 fold change; with KIAA1949 (human) it was 0.35 fold change; with KIF9 (human), 0.37 fold change; with KRT8 (human), 0.24 fold change; with LENG1 (human) it was 0.34 fold change. For the same substance, the HTLV LTR transactiv. (fold change) was 0.28 fold change with LNX2 (human); 0.38 fold change in the assay with MRPS6 (human); 2.53 fold change with MYEF2 (human); 0.45 fold change with NEFL (human); 0.39 fold change with NIF3L1 (human); 0.45 fold change with NOS3 (human). Besides, the HTLV LTR transactiv. (fold change) with SPG21 (human) is 0.21 fold change; in the assay with TTC23 (human), 0.21 fold change; with ZNF614 (human) it was 5.24 fold change.

(Values after patent US20120090043A1, “TARGETS FOR RETROVIRUS ASSOCIATED DISEASES” (priority 2009, published 2012).)
